The source of these data is PMC3823824.

In test [1] the target is Bcl-2 (mouse; recombinant, and endogenous in mouse heart) (UniProt P10417). Briefly: GST pull-down after kinase reaction. Conditions: sites T108.
The next test concerns the target Bcl-xL (recombinant) (UniProt Q07817). Briefly: GST pull-down after kinase reaction. To be noted: reference: GST-Beclin1-WT without Mst1; sites T108.

In the case of “Beclin1 (recombinant GST-Beclin1; adenoviral Beclin1 constructs) (from UniProt Q14457) GST-Beclin1-WT treated with Mst1 and ATP”, the “binding against the reference” value (in test [1] (reference: GST-Beclin1-WT without Mst1); with Bcl-xL (recombinant)) was “stronger” each time.
Take “Beclin1 (recombinant GST-Beclin1; adenoviral Beclin1 constructs) Beclin1-N2, 72-163 (from UniProt Q14457) GST-Beclin1-N2 treated with Mst1 and ATP”: in test [1] (reference: GST-Beclin1-N2 without Mst1), the “binding against the reference” value is on record as “stronger”.
